Experimental data from the supplement of paper PMC11316812.
± gives the standard deviation of the averaged measurements.

Key:
hTERT-HMEC = test: percentage of EdU-negative (G0-arrested) nuclei per well, 72 h; higher = more G0 arrest; conditions: reference: sequence is the full UniProt precursor, the tested protein was the secreted form or ectodomain
MCF7 = test: as above; conditions: reference: sequence is the full UniProt precursor, the tested protein was the secreted form or ectodomain
[1] = protein concentration 0.0225 µM
[2] = protein concentration 0.0055 µM
[3] = protein concentration 0.02225 µM
[4] = protein concentration 0.2225 µM
[5] = protein concentration 0.03125 µM
[6] = protein concentration 0.3125 µM
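Further: secreted proteins added to cultured cells, EdU pulse at the end, nuclei found by Hoechst imaging, EdU status from nuclear versus surrounding ring intensity ratio, PBS as neutral control.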

Sequence	percentage of EdU-negative (hTERT-HMEC; [1])	percentage of EdU-negative (hTERT-HMEC; protein concentration 0.225 µM)	percentage of EdU-negative (MCF7; [1])	percentage of EdU-negative (MCF7; protein concentration 0.225 µM)	other results
MRLSVRRVLLAAGCALVLVLAVQLGQQVLECRAVLAGLRSPRGAMRPEQEELVMVGTNHVEYRYGKAMPLIFVGGVPRSGTTLMRAMLDAHPEVRCGEETRIIPRVLAMRQAWSKSGREKLRLDEAGVTDEVLDAAMQAFILEVIAKHGEPARVLCNKDPFTLKSSVYLSRLFPNSKFLLMVRDGRASVHSMITRKVTIAGFDLSSYRDCLTKWNKAIEVMYAQCMEVGKEKCLPVYYEQLVLHPRRSLKLILDFLGIAWSDAVLHHEDLIGKPGGVSLSKIERSTDQVIKPVNLEALSKWTGHIPGDVVRDMAQIAPMLAQLGYDPYANPPNYGNPDPFVINNTQRVLKGDYKTPANLKGYFQVNQNSTSSHLGSS	5.18 ± 0.23%	36.4 ± 2.8%	26.7 ± 0.75%	30.1 ± 1.8%	–
MRLSWFRVLTVLSICLSAVATATGAEGKRKLQIGVKKRVDHCPIKSRKGDVLHMHYTGKLEDGTEFDSSLPQNQPFVFSLGTGQVIKGWDQGLLGMCEGEKRKLVIPSELGYGERGAPPKIPGGATLVFEVELLKIERRTEL	4.9 ± 1.4%	6.25 ± 0.1%	25.5 ± 0.037%	29.219 ± 0.017%	–
MRLTVLCAVCLLPGSLALPLPQEAGGMSELQWEQAQDYLKRFYLYDSETKNANSLEAKLKEMQKFFGLPITGMLNSRVIEIMQKPRCGVPDVAEYSLFPNSPKWTSKVVTYRIVSYTRDLPHITVDRLVSKALNMWGKEIPLHFRKVVWGTADIMIGFARGAHGDSYPFDGPGNTLAHAFAPGTGLGGDAHFDEDERWTDGSSLGINFLYAATHELGHSLGMGHSSDPNAVMYPTYGNGDPQNFKLSQDDIKGIQKLYGKRSNSRKK	–	–	–	–	percentage of EdU-negative (hTERT-HMEC; [2]): 5.71 ± 0.72%; percentage of EdU-negative (hTERT-HMEC; protein concentration 0.055 µM): 15 ± 1.8%; percentage of EdU-negative (MCF7; [2]): 26.4 ± 1.6%; percentage of EdU-negative (MCF7; protein concentration 0.055 µM): 29.9 ± 0.45%
MRMLLALLALSAARPSASAESHWCYEVQAESSNYPCLVPVKWGGNCQKDRQSPINIVTTKAKVDKKLGRFFFSGYDKKQTWTVQNNGHSVMMLLENKASISGGGLPAPYQAKQLHLHWSDLPYKGSEHSLDGEHFAMEMHIVHEKEKGTSRNVKEAQDPEDEIAVLAFLVEAGTQVNEGFQPLVEALSNIPKPEMSTTMAESSLLDLLPKEEKLRHYFRYLGSLTTPTCDEKVVWTVFREPIQLHREQILAFSQKLYYDKEQTVSMKDNVRPLQQLGQRTVIKSGAPGRPLPWALPALLGPMLACLLAGFLR	5.11 ± 0.088%	7.91 ± 0.34%	24.9 ± 1.8%	25.5 ± 1.3%	–
MRNSYRFLASSLSVVVSLLLIPEDVCEKIIGGNEVTPHSRPYMVLLSLDRKTICAGALIAKDWVLTAAHCNLNKRSQVILGAHSITREEPTKQIMLVKKEFPYPCYDPATREGDLKLLQLMEKAKINKYVTILHLPKKGDDVKPGTMCQVAGWGRTHNSASWSDTLREVNITIIDRKVCNDRNHYNFNPVIGMNMVCAGSLRGGRDSCNGDSGSPLLCEGVFRGVTSFGLENKCGDPRGPGVYILLSKKHLNWIIMTIKGAV	5.3 ± 0.55%	5.96 ± 1.8%	27.7 ± 2.1%	30.8 ± 3.2%	–
MRNWLVLLCPCVLGAALHLWLRLRSPPPACASGAGPADQLALFPQWKSTHYDVVVGVLSARNNHELRNVIRSTWMRHLLQHPTLSQRVLVKFIIGAHGCEVPVEDREDPYSCKLLNITNPVLNQEIEAFSLSEDTSSGLPEDRVVSVSFRVLYPIVITSLGVFYDANDVGFQRNITVKLYQAEQEEALFIARFSPPSCGVQVNKLWYKPVEQFILPESFEGTIVWESQDLHGLVSRNLHKVTVNDGGGVLRVITAGEGALPHEFLEGVEGVAGGFIYTIQEGDALLHNLHSRPQRLIDHIRNLHEEDALLKEESSIYDDIVFVDVVDTYRNVPAKLLNFYRWTVETTSFNLLLKTDDDCYIDLEAVFNRIVQKNLDGPNFWWGNFRLNWAVDRTGKWQELEYPSPAYPAFACGSGYVISKDIVKWLASNSGRLKTYQGEDVSMGIWMAAIGPKRYQDSLWLCEKTCETGMLSSPQYSPWELTELWKLKERCGDPCRCQAR [Q8NCR0]	–	–	–	–	percentage of EdU-negative (hTERT-HMEC; [3]): 5.56 ± 0.58%; percentage of EdU-negative (hTERT-HMEC; [4]): 11 ± 1%; percentage of EdU-negative (MCF7; [3]): 25.7 ± 4.8%; percentage of EdU-negative (MCF7; [4]): 29.39 ± 0.067%
MRPGAPGPLWPLPWGALAWAVGFVSSMGSGNPAPGGVCWLQQGQEATCSLVLQTDVTRAECCASGNIDTAWSNLTHPGNKINLLGFLGLVHCLPCKDSCDGVECGPGKACRMLGGRPRCECAPDCSGLPARLQVCGSDGATYRDECELRAARCRGHPDLSVMYRGRCRKSCEHVVCPRPQSCVVDQTGSAHCVVCRAAPCPVPSSPGQELCGNNNVTYISSCHMRQATCFLGRSIGVRHAGSCAGTPEEPPGGESAEEEENFV	–	–	–	–	percentage of EdU-negative (hTERT-HMEC; [5]): 4.24 ± 0.09%; percentage of EdU-negative (hTERT-HMEC; [6]): 4.84 ± 0.11%; percentage of EdU-negative (MCF7; [5]): 26 ± 2.5%; percentage of EdU-negative (MCF7; [6]): 24.7 ± 3.3%
